# Laboratory results: patent US20110165265A1 (FUNDACI GEN MICA CRG, published 2011)
# Residue numbers refer to the chain shown, from its start. Numbers in names are those of the source.
# B1: TRAIL variant D269H (114-281) (ligand)
# chain: MVRERGPQRVAAHITGTRGRSNTLSSPNSKNEKALGRKINSWESSRSGHSFLSNLHLRNGELVIHEKGFYYIYSQTYFRFQEEIKENTKNDKQMVQYIYKYTSYPDPILLMKSARNSCWSKDAEYGLYSIYQGGIFELKENDRIFVSVTNEHLIDMHHEASFFGAFLVG
# notes: All mutants are said to be of the length 114-281; also called rhTRAIL carrying mutation D269H; DR5-selective variant
# B2: TRAIL variant D269HE195R (114-281) (ligand)
# chain: B1 chain with E83R
# notes: All mutants are said to be of the length 114-281; also called TRAIL-DR5; DE
# B3: DcR1-Ig receptor chimera (R&D Systems) (Fc fusion, UniProt O14798 26-221, looked up, not shown: a dimerising Fc or GST)
# chain: ATTARQEEVPQQTVAPQQQRHSFKGEECPAGSHRSEHTGACNPCTEGVDYTNASNNEPSCFPCTVCKSDQKHKSSCTMTRDTVCQCKEGTFRNENSPEMCRKCSRCPSGEVQVSNCTSWDDIQCVEEFGANATVETPAAEETMNTSPGTPAPAAEETMNTSPGTPAPAAEETMTTSPGTPAPAAEETMTTSPGTPA
# B4: DcR2-Ig receptor chimera (R&D Systems) (Fc fusion, UniProt Q9UBN6 56-211, looked up, not shown: a dimerising Fc or GST)
# chain: ATIPRQDEVPQQTVAPQQQRRSLKEEECPAGSHRSEYTGACNPCTEGVDYTIASNNLPSCLLCTVCKSGQTNKSSCTTTRDTVCQCEKGSFQDKNSPEMCRTCRTGCPRGMVKVSNCTPRSDIKCKNESAASSTGKTPAAEETVTTILGMLASPYH
# How the values were obtained:
# [1] = target: B3; assay: SPR (Biacore 3000, 37 °C), DcR1-Ig captured on protein A, pre-steady state
# [2] = target: B4; assay: SPR (Biacore), DcR2-Ig captured on a protein A-modified CM5 chip, response in RU against ligand concentration (pre-steady state)
# DR5-Ig = target: T1, DR5-Ig (UniProt O14763 54-182); assay: not stated there (SPR by the context of paragraph 339)
# T1 construct: also called sDR5; soluble recombinant DR5-Ig; not shown: Ig (Fc) part
# [3] = target: death receptor 5 (DR5) on the cell surface (human, UniProt O14763 56-440); assay: cell-based or functional assay
# [4] = target: B2; assay: cell-based or functional assay
# [5] = target: B1; assay: cell-based or functional assay
# [6] = target: wild-type TRAIL (recombinant human soluble TRAIL, amino acids 114-281) (human, UniProt P50591 114-281); assay: cell-based or functional assay
# wild-type TRAIL (recombinant human soluble TRAIL, amino acids 114-281), sequence (P50591 114-281 limits assumed): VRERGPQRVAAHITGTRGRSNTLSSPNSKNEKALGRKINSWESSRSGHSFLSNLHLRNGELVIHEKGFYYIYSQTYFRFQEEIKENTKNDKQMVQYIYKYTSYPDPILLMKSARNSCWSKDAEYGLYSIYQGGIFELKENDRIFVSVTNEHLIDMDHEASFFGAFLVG
fold reduction of binding compared to wtTRAIL [1] [fold],binding result [2],fold increase in kon compared to wtTRAIL (DR5-Ig) [fold],block of ligand-induced apoptosis of Colo205 cells (Annexin V) after pre-incubation of the ligand with soluble receptor [4] [µg/mL],block of ligand-induced apoptosis of Colo205 cells (Annexin V) after pre-incubation of the ligand with soluble receptor [5],block of ligand-induced apoptosis of Colo205 cells (Annexin V) after pre-incubation of the ligand with soluble receptor [6] [µg/mL],Binder,rate of receptor activation relative to wtTRAIL [3] [fold]
~20,binds,–,–,–,–,B1,–
~20,binds,< 5,–,–,–,B2,17
–,–,–,> 2,> 2 µg/mL,0.5,B3,–
–,–,–,–,2 fold,–,B4,–
